Assay results from publication PMC5430869, “Structure-function analysis of the DNA-binding domain of a transmembrane transcriptional activator”.

Legend:
Details in all cases: protein: recombinant; tags: His6-thioredoxin removed by TEV; blunt
CadC1-107 (DBD) [1] = target: T1, CadC1-107 (DBD) (Escherichia coli, UniProt P23890 1-107); experiment: NMR; smaller imino CSPs, line broadening; EMSA/NMR/ITC: 20 mM BisTris, 150 mM NaCl, pH 6.5, RT (NMR 10% D2O, 298 K; imino spectra 283 K); SPR: 10 mM HEPES pH 7.4, 150 mM NaCl, 3 mM EDTA, 0.05% P20, 25 C
T1 sequence: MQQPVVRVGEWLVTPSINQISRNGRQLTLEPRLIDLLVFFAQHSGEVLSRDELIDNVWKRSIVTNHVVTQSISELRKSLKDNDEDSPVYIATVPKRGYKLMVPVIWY

CadC1-107 (DBD) [2] = target: T1, CadC1-107 (DBD); experiment: NMR titration; 1:1 model; EMSA/NMR/ITC: 20 mM BisTris, 150 mM NaCl, pH 6.5, RT (NMR 10% D2O, 298 K; imino spectra 283 K); SPR: 10 mM HEPES pH 7.4, 150 mM NaCl, 3 mM EDTA, 0.05% P20, 25 C
CadC1-107 (DBD) [3] = target: T1, CadC1-107 (DBD); experiment: NMR; EMSA/NMR/ITC: 20 mM BisTris, 150 mM NaCl, pH 6.5, RT (NMR 10% D2O, 298 K; imino spectra 283 K); SPR: 10 mM HEPES pH 7.4, 150 mM NaCl, 3 mM EDTA, 0.05% P20, 25 C
CadC1-107 (DBD) [4] = target: T1, CadC1-107 (DBD); experiment: EMSA; identical to 41-mer; value only in figure; EMSA/NMR/ITC: 20 mM BisTris, 150 mM NaCl, pH 6.5, RT (NMR 10% D2O, 298 K; imino spectra 283 K); SPR: 10 mM HEPES pH 7.4, 150 mM NaCl, 3 mM EDTA, 0.05% P20, 25 C
CadC1-159 WT [5] = target: T2, CadC1-159 WT (Escherichia coli, UniProt P23890 1-159); experiment: SPR; steady state; construct called CadC DBD in legend, CadC1-159 in Methods; EMSA/NMR/ITC: 20 mM BisTris, 150 mM NaCl, pH 6.5, RT (NMR 10% D2O, 298 K; imino spectra 283 K); SPR: 10 mM HEPES pH 7.4, 150 mM NaCl, 3 mM EDTA, 0.05% P20, 25 C
T2 sequence: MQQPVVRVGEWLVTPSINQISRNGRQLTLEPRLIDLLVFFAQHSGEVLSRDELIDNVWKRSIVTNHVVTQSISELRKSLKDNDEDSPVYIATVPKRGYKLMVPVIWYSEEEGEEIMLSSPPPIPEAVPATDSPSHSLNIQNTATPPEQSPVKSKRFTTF

CadC1-159 WT [6] = target: T2, CadC1-159 WT; experiment: SPR; steady state; EMSA/NMR/ITC: 20 mM BisTris, 150 mM NaCl, pH 6.5, RT (NMR 10% D2O, 298 K; imino spectra 283 K); SPR: 10 mM HEPES pH 7.4, 150 mM NaCl, 3 mM EDTA, 0.05% P20, 25 C
CadC1-159 E30R = target: T3, CadC1-159 E30R (Escherichia coli, UniProt P23890 1-159, E30R); experiment: SPR; almost 30-fold; EMSA/NMR/ITC: 20 mM BisTris, 150 mM NaCl, pH 6.5, RT (NMR 10% D2O, 298 K; imino spectra 283 K); SPR: 10 mM HEPES pH 7.4, 150 mM NaCl, 3 mM EDTA, 0.05% P20, 25 C
T3 sequence: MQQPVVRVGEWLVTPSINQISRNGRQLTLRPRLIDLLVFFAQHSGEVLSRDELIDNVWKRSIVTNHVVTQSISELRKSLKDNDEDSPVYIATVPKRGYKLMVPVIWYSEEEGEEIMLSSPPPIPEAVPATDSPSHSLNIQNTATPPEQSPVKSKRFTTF

B1: Cad1C 13-mer (dsDNA)
DNA 1: TGATATCAACTTG
DNA 2: CAAGTTGATATCA
B1: binds (CadC1-107 (DBD) [1]).

B2: Cad1 17-mer (dsDNA)
DNA 1: TAAACATTAAATGTTTA
DNA 2: TAAACATTTAATGTTTA
Binder B2 has a Kd (CadC1-107 (DBD) [2]) of 67 ± 16 µM.

B3: Cad1A 14-mer (dsDNA)
DNA 1: GTAAACATTAAATG
DNA 2: CATTTAATGTTTAC
B3: binds (CadC1-107 (DBD) [3]).

B4: Cad1AB 26-mer (dsDNA)
DNA 1: GTAAACATTAAATGTTTATCTTTTCA
DNA 2: TGAAAAGATAAACATTTAATGTTTAC
B4: binds (CadC1-107 (DBD) [4]).

B5: Cad1 17-mer, biotinylated (SPR) (dsDNA)
DNA 1: TAAACATTAAATGTTTA
DNA 2: TAAACATTTAATGTTTA
With B5 the Kd (CadC1-159 WT [5]) was 23 µM.

B6: Cad1 41-mer, biotinylated (SPR) (dsDNA)
DNA 1: TTGTAAACATTAAATGTTTATCTTTTCATGATATCAACTTG
DNA 2: CAAGTTGATATCATGAAAAGATAAACATTTAATGTTTACAA
In the case of B6, the Kd (CadC1-159 WT [6]) is reported as 0.38 µM and the binding signal (CadC1-159 E30R) is reported as ~30 fold increased affinity vs WT.

B7: Cad1B 13-mer (dsDNA)
DNA 1: GTTTATCTTTTCA
DNA 2: TGAAAAGATAAAC
B7: binds (CadC1-107 (DBD) [3]).
